This is an account of results in article PMC12440827 (Nature structural & molecular biology, 2025).

This test addresses FIP200 N-terminal domain (1-640), untagged, of the ULK1C core (human, UniProt Q8TDY2 1-640). The test is described as follows: cryo-EM structure; ULK1C (2:1:1) core, SEC peak in 25 mM HEPES pH 7.5, 150 mM NaCl, 1 mM MgCl2, 1 mM TCEP; graphene grids, 300 kV Titan Krios. Conditions: both partners purified.

Chain of FIP200 N-terminal domain (1-640), untagged, of the ULK1C core (Q8TDY2 1-640): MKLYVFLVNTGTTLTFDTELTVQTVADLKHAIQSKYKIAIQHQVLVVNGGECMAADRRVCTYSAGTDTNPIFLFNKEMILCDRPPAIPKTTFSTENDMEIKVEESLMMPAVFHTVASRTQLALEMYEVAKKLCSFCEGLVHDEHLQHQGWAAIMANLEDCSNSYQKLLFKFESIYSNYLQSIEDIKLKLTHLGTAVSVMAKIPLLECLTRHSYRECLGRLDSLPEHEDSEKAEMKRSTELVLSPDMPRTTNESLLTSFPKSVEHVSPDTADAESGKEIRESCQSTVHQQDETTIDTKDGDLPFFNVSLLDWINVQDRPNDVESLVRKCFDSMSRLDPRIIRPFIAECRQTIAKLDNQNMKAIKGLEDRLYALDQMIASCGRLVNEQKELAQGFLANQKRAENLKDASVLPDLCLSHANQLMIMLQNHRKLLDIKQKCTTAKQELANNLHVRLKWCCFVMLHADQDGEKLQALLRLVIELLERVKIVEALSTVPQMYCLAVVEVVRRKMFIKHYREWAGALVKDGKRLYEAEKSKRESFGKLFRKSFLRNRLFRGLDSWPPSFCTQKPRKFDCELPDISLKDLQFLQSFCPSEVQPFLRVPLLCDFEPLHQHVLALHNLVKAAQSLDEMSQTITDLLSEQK

B1: ATG13 (363-517), the ATG13 part of the ATG13-ULK1 fusion chain (domain or fragment, human, UniProt O75143 363-517, looked up)
chain: HDVLETIFVRKVGAFVNKPINQVTLTSLDIPFAMFAPKNLELEDTDPMVNPPDSPETESPLQGSLHSDGSSGGSSGNTHDDFVMIDFKPAFSKDDILPMDLGTFYREFQNPPQLSSLSIDIGAQSMAEDLDSLPEKLAVHEKNVREFDAFVETLQ
For the molecule B1, the binding result was “binds”.
